Protein stability index data for 94 variants are collected here from the supplement of paper PMC10567573.

Sequences and labels used below:
B1: FBXO39 (parent)
chain: PSRVHASEVESAVWYVKKFGRYLE
B2: MNAT1 (parent)
chain: LEEALYEYQPLQIETYGPHVPELE
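Also: lentivirally expressed fusions sorted by FACS into six bins by GFP to DsRed ratio, PSI derived from sequencing read proportions per bin multiplied by bin number.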

Variants of B1 are the subject of the first data set. Put plainly: protein stability index of a GFP-peptide fusion (GPS, HEK-293T) (PSI 1-6); higher = more stable. The settings on record: c terminus: a fixed tail appended.
As to PSGVHASEVESAVWYVKKFGRYLE, the protein stability index was determined as 2.29.
Still for that read-out and setting: to PSHVHASEVESAVWYVKKFGRYLE belongs 1.98; to PSFVHASEVESAVWYVKKFGRYLE, 1.49.
On the same count and under the same terms, next, PSIVHASEVESAVWYVKKFGRYLE: 2.18; PSRVKASEVESAVWYVKKFGRYLE: 1.4.
On the same count and under the same terms, next, PSRVDASEVESAVWYVKKFGRYLE: 2.52; PSRVNASEVESAVWYVKKFGRYLE: 2.36; PSRVCASEVESAVWYVKKFGRYLE: 1.61.
Consider PSRVLASEVESAVWYVKKFGRYLE, for which the protein stability index stood at 2.49.
On the same count and under the same terms, next, PSRVYASEVESAVWYVKKFGRYLE: 1.43; PSRVMASEVESAVWYVKKFGRYLE: 1.86; PSRVTASEVESAVWYVKKFGRYLE: 1.43.
PSRVAASEVESAVWYVKKFGRYLE: the protein stability index was 2.11.
On the same count and under the same terms, next, PSRVRASEVESAVWYVKKFGRYLE: 1.36; PSRVVASEVESAVWYVKKFGRYLE: 1.68.
For PSRVQASEVESAVWYVKKFGRYLE, the protein stability index is 2.69.
Same read-out and setting: next, PSRVFASEVESAVWYVKKFGRYLE: 2.02; PSRVEASEVESAVWYVKKFGRYLE: 3.31; PSRVPASEVESAVWYVKKFGRYLE: 2.
The same measure, in the same setting: next, PSRVIASEVESAVWYVKKFGRYLE: 1.39; PSRVGASEVESAVWYVKKFGRYLE: 2.26.
Still for that read-out and setting: next, PSRVSASEVESAVWYVKKFGRYLE: 2.05.
PSRVWASEVESAVWYVKKFGRYLE: the protein stability index worked out at 2.86.

In another data set the parent is B2. Described as above. The settings on record: c terminus: a fixed tail appended.
With LEEALYEYQPLQIETYGPHVPEKE, the protein stability index amounted to 3.59.
Still for that read-out and setting: next, LEEALYEYQPLQIETYGPHVPERE: 3.99; LEEALYEYQPLQIETYGPHVPEGE: 3.55.
Same read-out and setting: to LEEALYEYQPLQIETYGPHVPEAE belongs 3.56.
On the same count and under the same terms, next, LEEALYEYQPLQIETYGPHVPEQE: 2.98; LEEALYEYQPLQIETYGPHVPEWE: 2.84; LEEALYEYQPLQIETYGPHVPEDE: 4.02.
LEEALYEYQPLQIETYGPHVPEHE: the protein stability index was 3.29.
Same read-out and setting: to LEEALYEYQPLQIETYGPHVPENE belongs 3.34; to LEEALYEYQPLQIETYGPHVPEYE, 2.89; to LEEALYEYQPLQIETYGPHVPEPE, 3.19.
Same read-out and setting: to LEEALYEYQPLQIETYGPHVPESE belongs 3.48.
Same read-out and setting: to LEEALYEYQPLQIETYGPHVPECE belongs 3.16; to LEEALYEYQPLQIETYGPHVPEFE, 2.87; to LEEALYEYQPLQIETYGPHVPEVE, 2.81.
As for LEEALYEYQPLQIETYGPHVPEEE, the protein stability index amounted to 4.12.
Turning to LEEALYEYQPLQIETYGPHVPEME, the protein stability index amounted to 3.2.
Still for that read-out and setting: next, LEEALYEYQPLQIETYGPHVPEIE: 2.53; LEEALYEYQPLQIETYGPHVPETE: 2.6; LEEALYEYQPLQIETYGPHVPGLE: 2.43.
Same read-out and setting: next, LEEALYEYQPLQIETYGPHVPALE: 2.47.
Still for that read-out and setting: next, LEEALYEYQPLQIETYGPHVPTLE: 2.56.
Turning to LEEALYEYQPLQIETYGPHVPVLE, the protein stability index worked out at 2.56.
For LEEALYEYQPLQIETYGPHVPFLE, the protein stability index is 1.97.
Turning to LEEALYEYQPLQIETYGPHVPNLE, the protein stability index was found to be 2.31.
On to LEEALYEYQPLQIETYGPHVPDLE, for which the protein stability index was 2.46.
The same measure, in the same setting: to LEEALYEYQPLQIETYGPHVPYLE belongs 2.49; to LEEALYEYQPLQIETYGPHVPQLE, 2.54.
On the same count and under the same terms, next, LEEALYEYQPLQIETYGPHVPHLE: 2.2.
Same read-out and setting: to LEEALYEYQPLQIETYGPHVPILE belongs 1.84; to LEEALYEYQPLQIETYGPHVPMLE, 2.35.
As to LEEALYEYQPLQIETYGPHVPPLE, the protein stability index stood at 2.28.
The same measure, in the same setting: to LEEALYEYQPLQIETYGPHVPSLE belongs 2.4; to LEEALYEYQPLQIETYGPHVPWLE, 1.54; to LEEALYEYQPLQIETYGPHVPLLE, 2.35.
Turning to LEEALYEYQPLQIETYGPHVPRLE, the protein stability index is 2.35.
The same measure, in the same setting: to LEEALYEYQPLQIETYGPHVPCLE belongs 3.71; to LEEALYEYQPLQIETYGPHVPKLE, 2.31.
Turning to LEEALYEYQPLQIETYGPHVPELT, the protein stability index is 2.67.
On to LEEALYEYQPLQIETYGPHVPELF, for which the protein stability index came to 1.91.
On the same count and under the same terms, next, LEEALYEYQPLQIETYGPHVPELL: 2.19; LEEALYEYQPLQIETYGPHVPELS: 2.54; LEEALYEYQPLQIETYGPHVPELH: 2.25.
The same measure, in the same setting: to LEEALYEYQPLQIETYGPHVPELN belongs 2.35; to LEEALYEYQPLQIETYGPHVPELD, 3.39.
Take LEEALYEYQPLQIETYGPHVPELQ: the protein stability index was found to be 2.18.
Consider LEEALYEYQPLQIETYGPHVPELG, for which the protein stability index is 2.03.
Still for that read-out and setting: next, LEEALYEYQPLQIETYGPHVPELP: 1.93.
Still for that read-out and setting: to LEEALYEYQPLQIETYGPHVPELA belongs 2.84; to LEEALYEYQPLQIETYGPHVPELI, 1.88; to LEEALYEYQPLQIETYGPHVPELK, 2.53.
As to LEEALYEYQPLQIETYGPHVPELY, the protein stability index turned out to be 1.39.
The same measure, in the same setting: to LEEALYEYQPLQIETYGPHVPELC belongs 1.76; to LEEALYEYQPLQIETYGPHVPELV, 2.19.
The same measure, in the same setting: next, LEEALYEYQPLQIETYGPHVPELM: 2.14; LEEALYEYQPLQIETYGPHVPELW: 1.45.
The same measure, in the same setting: to LEEALYEYQPLQIETYGPHVPELR belongs 1.95; to LEEALYEYQPLQIETYGPHVKELE, 3.01; to LEEALYEYQPLQIETYGPHVGELE, 1.97.
Regarding LEEALYEYQPLQIETYGPHVVELE, the protein stability index came out at 2.19.
Still for that read-out and setting: to LEEALYEYQPLQIETYGPHVMELE belongs 2.53.
Regarding LEEALYEYQPLQIETYGPHVTELE, the protein stability index was determined as 2.56.
Still for that read-out and setting: next, LEEALYEYQPLQIETYGPHVIELE: 2.2; LEEALYEYQPLQIETYGPHVWELE: 1.75; LEEALYEYQPLQIETYGPHVSELE: 2.41.
On the same count and under the same terms, to LEEALYEYQPLQIETYGPHVRELE belongs 2.96; to LEEALYEYQPLQIETYGPHVHELE, 2.58; to LEEALYEYQPLQIETYGPHVLELE, 2.79.
Still for that read-out and setting: next, LEEALYEYQPLQIETYGPHVYELE: 1.75; LEEALYEYQPLQIETYGPHVNELE: 2.47.
In the case of LEEALYEYQPLQIETYGPHVQELE, the protein stability index came to 3.42.
